13 molecules from patent US20230070261A1 (UCB, published 2023) can be followed below.

“And” between values parts separate entries of the source, which are not always exact repeats. Equal values may be shown once.

To fix the notation:
B1: 10273 gL2gH1 (antibody, human IgG4 S228P, kappa, V domains shown)
VH: EVQLVESGGGLVQPGGSLRLSCAVSGFSLSSYGMSWVRQAPGKGLEWIGIISSSGSTYYASWAKGRFTISKDSSKNTVYLQMNSLRAEDTAVYYCARDHIYRYDDYGDYPTYYGMDPWGQGTTVTVSS
VL: AIQLTQSPSSLSASVGDRVTITCQSSQSVYNNNDLAWYQQKPGKAPKLLIYRASTLASGVPSRFSGSGSGTDFTLTISSLQPEDFATYYCLGGYDDDVDTYTFGGGTKVEIKR
modifications: sulphation (+80 Da) of Tyr 9 of CDR-H3, 95% of heavy chain (hIgG4P, Table 7)
notes: Humanized graft
B2: 10273 gL2-Q1RgH1-D19N-T14V (antibody, human IgG4 S228P, kappa, V domains shown)
VH: EVQLVESGGGLVQPGGSLRLSCAVSGFSLSSYGMSWVRQAPGKGLEWIGIISSSGSTYYASWAKGRFTISKDSSKNTVYLQMNSLRAEDTAVYYCARDHIYRYDDYGDYPVYYGMNPWGQGTTVTVSS
VL: AIQLTQSPSSLSASVGDRVTITCRSSQSVYNNNDLAWYQQKPGKAPKLLIYRASTLASGVPSRFSGSGSGTDFTLTISSLQPEDFATYYCLGGYDDDVDTYTFGGGTKVEIKR
modifications: sulphation (+80 Da) of Tyr 9 of CDR-H3, 75% of heavy chain (Table 7)
notes: Humanized graft, hIgG4P
B3: 10273 gL2-Q1RgH1-D19N-Y4F (antibody, human IgG4 S228P, kappa, V domains shown)
VH: EVQLVESGGGLVQPGGSLRLSCAVSGFSLSSYGMSWVRQAPGKGLEWIGIISSSGSTYYASWAKGRFTISKDSSKNTVYLQMNSLRAEDTAVYYCARDHIFRYDDYGDYPTYYGMNPWGQGTTVTVSS
VL: AIQLTQSPSSLSASVGDRVTITCRSSQSVYNNNDLAWYQQKPGKAPKLLIYRASTLASGVPSRFSGSGSGTDFTLTISSLQPEDFATYYCLGGYDDDVDTYTFGGGTKVEIKR
modifications: sulphation (+80 Da) of Tyr 9 of CDR-H3, 85% of heavy chain (Table 7)
notes: Humanized graft, hIgG4P
B4: 10273 gL2-Q1RgH1-D19N-T14S (antibody, human IgG4 S228P, kappa, V domains shown)
VH: EVQLVESGGGLVQPGGSLRLSCAVSGFSLSSYGMSWVRQAPGKGLEWIGIISSSGSTYYASWAKGRFTISKDSSKNTVYLQMNSLRAEDTAVYYCARDHIYRYDDYGDYPSYYGMNPWGQGTTVTVSS
VL: AIQLTQSPSSLSASVGDRVTITCRSSQSVYNNNDLAWYQQKPGKAPKLLIYRASTLASGVPSRFSGSGSGTDFTLTISSLQPEDFATYYCLGGYDDDVDTYTFGGGTKVEIKR
modifications: sulphation (+80 Da) of Tyr 9 of CDR-H3, 65% of heavy chain (Table 7)
notes: Humanized graft, hIgG4P
B5: 10273 gL2-Q1RgH1-D19N-Y12F (antibody, human IgG4 S228P, kappa, V domains shown)
VH: EVQLVESGGGLVQPGGSLRLSCAVSGFSLSSYGMSWVRQAPGKGLEWIGIISSSGSTYYASWAKGRFTISKDSSKNTVYLQMNSLRAEDTAVYYCARDHIYRYDDYGDFPTYYGMNPWGQGTTVTVSS
VL: AIQLTQSPSSLSASVGDRVTITCRSSQSVYNNNDLAWYQQKPGKAPKLLIYRASTLASGVPSRFSGSGSGTDFTLTISSLQPEDFATYYCLGGYDDDVDTYTFGGGTKVEIKR
modifications: sulphation (+80 Da) of Tyr 9 of CDR-H3, 75% of heavy chain (Table 7)
notes: Humanized graft, hIgG4P
B6: 10273 gL2-Q1RgH1-D19N-Y16F (antibody, human IgG4 S228P, kappa, V domains shown)
VH: EVQLVESGGGLVQPGGSLRLSCAVSGFSLSSYGMSWVRQAPGKGLEWIGIISSSGSTYYASWAKGRFTISKDSSKNTVYLQMNSLRAEDTAVYYCARDHIYRYDDYGDYPTYFGMNPWGQGTTVTVSS
VL: AIQLTQSPSSLSASVGDRVTITCRSSQSVYNNNDLAWYQQKPGKAPKLLIYRASTLASGVPSRFSGSGSGTDFTLTISSLQPEDFATYYCLGGYDDDVDTYTFGGGTKVEIKR
modifications: sulphation (+80 Da) of Tyr 9 of CDR-H3, 75% of heavy chain (Table 7)
notes: Humanized graft, hIgG4P
B7: 10273 gL2-Q1RgH1-D19N-Y6F (antibody, human IgG4 S228P, kappa, V domains shown)
VH: EVQLVESGGGLVQPGGSLRLSCAVSGFSLSSYGMSWVRQAPGKGLEWIGIISSSGSTYYASWAKGRFTISKDSSKNTVYLQMNSLRAEDTAVYYCARDHIYRFDDYGDYPTYYGMNPWGQGTTVTVSS
VL: AIQLTQSPSSLSASVGDRVTITCRSSQSVYNNNDLAWYQQKPGKAPKLLIYRASTLASGVPSRFSGSGSGTDFTLTISSLQPEDFATYYCLGGYDDDVDTYTFGGGTKVEIKR
modifications: sulphation (+80 Da) of Tyr 9 of CDR-H3, 75% of heavy chain (Table 7)
notes: Humanized graft, hIgG4P
B8: 10273 gL2-Q1RgH1-D19N-Y15F (antibody, human IgG4 S228P, kappa, V domains shown)
VH: EVQLVESGGGLVQPGGSLRLSCAVSGFSLSSYGMSWVRQAPGKGLEWIGIISSSGSTYYASWAKGRFTISKDSSKNTVYLQMNSLRAEDTAVYYCARDHIYRYDDYGDYPTFYGMNPWGQGTTVTVSS
VL: AIQLTQSPSSLSASVGDRVTITCRSSQSVYNNNDLAWYQQKPGKAPKLLIYRASTLASGVPSRFSGSGSGTDFTLTISSLQPEDFATYYCLGGYDDDVDTYTFGGGTKVEIKR
modifications: sulphation (+80 Da) of Tyr 9 of CDR-H3, 85% of heavy chain (Table 7)
notes: Humanized graft, hIgG4P
B9: 10273 gL2-Q1RgH1-D19N-Y9F (antibody, human IgG4 S228P, kappa, V domains shown)
VH: EVQLVESGGGLVQPGGSLRLSCAVSGFSLSSYGMSWVRQAPGKGLEWIGIISSSGSTYYASWAKGRFTISKDSSKNTVYLQMNSLRAEDTAVYYCARDHIYRYDDFGDYPTYYGMNPWGQGTTVTVSS
VL: AIQLTQSPSSLSASVGDRVTITCRSSQSVYNNNDLAWYQQKPGKAPKLLIYRASTLASGVPSRFSGSGSGTDFTLTISSLQPEDFATYYCLGGYDDDVDTYTFGGGTKVEIKR
notes: Humanized graft, hIgG4P
B10: LEKTI D5 Fab fusion (other)
heavy: EVQLLESGGGLVQPGGSLRLSCAVSGIDLSNYAINWVRQAPGKGLEWIGIIWASGTTFYATWAKGRFTISRDNSGGGGSGGGGSREIVKLCSQYQNQAKNGILFCTRENDPIRGPDGKMHGNLCSMCQAYFQAENEEKKKAEARARSGGGGGGGGSKNTVYLQMNSLRAEDTAVYYCARTVPGYSTAPYFDLWGQGTLVTVSSASTKGPSVFPLAPSSKSTSGGTAALGCLVKDYFPEPVTVSWNSGALTSGVHTFPAVLQSSGLYSLSSVVTVPSSSLGTQTYICNVNHKPSNTKVDKKVEPKSCHHHHHHHHHH
light: DIQMTQSPSSVSASVGDRVTITCQSSPSVWSNFLSWYQQKPGKAPKLLIYEASKLTSGVPSRFSGSGSGTDFTLTISSLQPEDFATYYCGGGYSSISDTTFGGGTKVEIKRTVAAPSVFIFPPSDEQLKSGTASVVCLLNNFYPREAKVQWKVDNALQSGNSQESVTEQDSKDSTYSLSSTLTLSKADYEKHKVYACEVTHQGLSSPVTKSFNRGEC
notes: also called LEKTI D5 Fab fusion protein; LEKTI D5Fab fusion protein
B11: Rabbit antibody 10273 (antibody, V domains shown)
VH: QSVEESGGRLVTPGTPLTLTCTVSGFSLSSYGMSWVRQAPGKGLEWIGIISSSGSTYYASWAKGRFTISKTSTTVDLKIASPTTEDTATYFCARDHIYRYDDYGDYPTYYGMDPWGPGTLVTVSS
VL: AVVLTQTPSPMSAAVGGTVTISCQSSQSVYNNNDLAWYQQKPGQPPKLLIYRASTLASGVPSRFSGSGSGTQFTLTISGVQCDDAATYYCLGGYDDDVDTYTFGGGTEVVVK
B12: 10273gL2-Q1RgH1-D19N (antibody, human IgG4 S228P, kappa, V domains shown)
VH: EVQLVESGGGLVQPGGSLRLSCAVSGFSLSSYGMSWVRQAPGKGLEWIGIISSSGSTYYASWAKGRFTISKDSSKNTVYLQMNSLRAEDTAVYYCARDHIYRYDDYGDYPTYYGMNPWGQGTTVTVSS
VL: AIQLTQSPSSLSASVGDRVTITCRSSQSVYNNNDLAWYQQKPGKAPKLLIYRASTLASGVPSRFSGSGSGTDFTLTISSLQPEDFATYYCLGGYDDDVDTYTFGGGTKVEIKR
modifications: sulphation (+80 Da) of Tyr 9 of CDR-H3, 80% of heavy chain (Table 7)
notes: Humanized graft, hIgG4P

The first experiment addresses T1, Active human KLK5 (human, UniProt Q9Y337 67-293).
T1 construct: For crystallography it was made with kifunensine and treated with Endo H (deglycosylated); also called Hu KLK5; kallikrein 5
The experiment can be described thus: SPR (Biacore T200, 25 C); IgG captured on anti-human IgG Fc, human KLK5 as analyte; 1:1 model. How it is done: (§1) The kinetics of these grafts for binding to human KLK5 were assessed by surface plasmon resonance (Biacore T200) at 25° C.
(§2) A goat anti-human IgG Fc specific antibody (Jackson ImmunoResearch) was immobilised on a CM5 Sensor Chip via amine coupling chemistry to a level of approximately 7000RU. Each analysis cycle consisted of capture of the anti-KLK5 IgG molecules to the anti Fc surface, injection of KLK5 analyte (prepared in house) for 180 s at 30 μl/min followed by 600 s dissociation. At the end of each cycle the surface was regenerated at a flowrate of 10 μL/min using a 60 s injection of 50 mM HCl followed by a 30 s injection of 5 mM NaOH and a final 60 s injection of 50 mM HCl. Human KLK5 was titrated from 20 nM to 0.74 nM (3×3-fold serial dilutions) in HBS-EP+running buffer (GE Healthcare) supplemented with NaCl to a final concentration of 300 mM. Buffer blank injections were included to subtract instrument noise and drift.
(§3) Kinetic parameters were determined using a 1:1 binding model using Biacore T200 Evaluation software.
B1 registered a Kd of 0.164 nM, a koff of 8.45e-05 s⁻¹ and a kon of 514000 M⁻¹ s⁻¹.

Take B2: the affinity, expressed as Kd, was 6.9 nM; the koff turned out to be 0.00251 s⁻¹; the kon amounted to 364000 M⁻¹ s⁻¹.

For the molecule B3, the Kd was 1.15 nM, the koff worked out at 0.000519 s⁻¹ and the kon was found to be 451000 M⁻¹ s⁻¹.

For B4, the Kd is 0.644 nM, the koff turned out to be 0.000165 s⁻¹ and the kon is 257000 M⁻¹ s⁻¹.

B5 gave a Kd of 0.319 nM, a koff of 0.000138 s⁻¹ and a kon of 432000 M⁻¹ s⁻¹.

In turn, B6 came in with a Kd of 5.77 nM, a koff of 0.0016 s⁻¹ and a kon of 277000 M⁻¹ s⁻¹.

On to B7, for which the Kd was 0.625 nM, the koff was 0.000186 s⁻¹ and the kon turned out to be 298000 M⁻¹ s⁻¹.

For B8, the affinity, expressed as Kd, was 0.249 nM; the koff is 0.000139 s⁻¹; the kon was 558000 M⁻¹ s⁻¹.

Molecule B9 returned a Kd of 0.554 nM, a koff of 0.0002 s⁻¹ and a kon of 362000 M⁻¹ s⁻¹.

For another experiment, the target named is T1, Active human KLK5. The experiment can be described thus: SPR; rabbit antibody 10273 captured on anti-rabbit Fc and saturated with 20 nM human KLK5, LEKTI D5 Fab fusion as analyte (KLK5 in complex with 10273); 1:1 model. The procedure:
(§4) 20 nM of human KLK5 was then injected until the surface reached saturation. LEKTI D5 Fab fusion protein (generated as described in example 1) was then injected at concentrations between 30 μM and 100 nM. Values from buffer only injections were first subtracted from those obtained with the analytes before fitting to a 1:1 binding kinetic model in Biacore™ evaluation software (GE Life Sciences™)
(§5) As reference, LEKTI D5 Fab fusion protein was immobilised to the chip surface prior to monitoring the interaction with human KLK5.
With B10, the koff was found to be 0.000565 s⁻¹ and the kon came out at 28700 M⁻¹ s⁻¹.

The target in a further experiment is T1, Active human KLK5. The experiment can be described thus: cell-based or functional assay.
With Human LEKTI D5 rabbit Fc (Fc fusion), the IC50 (M), inhibition of kallikrein protease activity (fluorogenic peptide substrate) amounted to 1.03e-10 M.

As for B11, the “IC50 (read off the curve)” value is approximately 50 nM.

For the next experiment, the target named is T1, Active human KLK5. The experiment can be described thus: SPR; rabbit antibody 10273 captured on anti-rabbit Fc and saturated with 20 nM human KLK5, LEKTI D5 Fab fusion as analyte (KLK5 in complex with 10273); average value n = 2; human KLK5 already in complex with captured rabbit antibody 10273; LEKTI D5 Fab fusion as analyte; average n = 2. The procedure: as §4, §5
The molecule B10 returned a Kd of 13.4 nM.

A further experiment concerns the target T1, Active human KLK5. The experiment can be described thus: SPR (Biacore T200, 25 C); IgG captured on anti-human IgG Fc, human KLK5 as analyte; 1:1 model; duplicate sample. How it is done:
as §1, §2, §3
As to B12, the Kd was 0.41 nM and 0.309 nM; the off-rate constant (koff) is 0.000175 s⁻¹ and 0.000133 s⁻¹; the kon is 427000 M⁻¹ s⁻¹ and 257000 M⁻¹ s⁻¹.

Another experiment has as its target T1, Active human KLK5.
Test: not given
As to Human LEKTI D5 rabbit Fc (Fc fusion), the IC50 (read off the curve) is 200 nM.
